Each block holds one compound with its values, some of them ahead of it.
How the values were obtained:
[1] = target: T1, S-acyl fatty acid synthase thioesterase-like enzyme short (long) polypeptide (Homo sapiens, UniProt Q9NV23); test: Comparison of continuous and discontinuous assay format (pre-incubation with DTNB); type: biochemical; design: His6; made in house; host or cells: Sf9 insect cells, baculovirus; settings: DTNB at the concentrations used in the continuous assay format
Protocol: S-acyl fatty acid synthase thioesterase-like enzyme short (long) polypeptide was incubated in the presence or absence of DTNB, and the A412 was monitored until a baseline was achieved. Substrate (palmitoyl CoA) was then added to each incubation and was incubated for an additional 50 minutes. After this period of time, A412 of each sample was compared to determine whether the pre-incubation of enzyme with DTNB inactivates the enzyme. Enzyme without substrate was used as a blank for the discontinuous assay.

[2] = target: T1, S-acyl fatty acid synthase thioesterase-like enzyme short (long) polypeptide; test: Continuous DTNB assay, kinetics and substrate searching; settings: Batch 1 from baculovirus
Protocol: (§1) A continuous assay format was used to get kinetic information on this preparation of S-acyl fatty acid synthase thioesterase-like enzyme short (long) polypeptide, using the same conditions as with the discontinuous assay, except with this format, developer was added to enzyme until a flat signal was achieved, then the reaction was started by the addition of substrate. Along with palmitoyl CoA, the other substrates assayed were acetyl CoA, octanoyl CoA, decanoyl CoA, and lauroyl CoA.
(§2) S-acyl fatty acid synthase thioesterase-like enzyme short (long) polypeptide activity was assayed in the continuous format as described.

[3] = test system: CCCCCCCC(=O)SCCNC(=O)CCNC(=O)[C@H](O)C(C)(C)COP(=O)(O)OP(=O)(O)OC[C@H]1O[C@@H](n2cnc3c(N)ncnc32)[C@H](O)[C@@H]1OP(=O)(O)O; test: purified protein, by the assay type; settings: other: Batch 1 from baculovirus, continuous assay
Protocol: as §1, §2

[4] = test system: CCCCCCCCCC(=O)SCCNC(=O)CCNC(=O)[C@H](O)C(C)(C)COP(=O)(O)OP(=O)(O)OC[C@H]1O[C@@H](n2cnc3c(N)ncnc32)[C@H](O)[C@@H]1OP(=O)(O)O; test: purified protein, by the assay type; settings: other: Batch 1 from baculovirus, continuous assay
Protocol: as §1, §2

[5] = test system: CCCCCCCCCCCC(=O)SCCNC(=O)CCNC(=O)[C@H](O)C(C)(C)COP(=O)(O)OP(=O)(O)OC[C@H]1O[C@@H](n2cnc3c(N)ncnc32)[C@H](O)[C@@H]1OP(=O)(O)O; test: purified protein, by the assay type; settings: other: Batch 1 from baculovirus, continuous assay
Protocol: as §1, §2

[6] = test system: CCCCCCCCCCCCCCCC(=O)SCCNC(=O)CCNC(=O)[C@H](O)C(C)(C)COP(=O)(O)OP(=O)(O)OC[C@H]1O[C@@H](n2cnc3c(N)ncnc32)[C@H](O)[C@@H]1OP(=O)(O)O; test: purified protein, by the assay type; settings: continuous assay
Protocol: as §1, §2

[7] = target: T2, S-acyl fatty acid synthase thioesterase-like enzyme short (long) polypeptide (coolEST49) (Homo sapiens, UniProt Q9NV23); test: Discontinuous DTNB thioesterase activity / inhibition assay with palmitoyl CoA; type: biochemical; settings: 1 mM AEBSF
T2 construct: 6xHis (N); made in house; host or cells: E. coli BL21 (DE3), pET-28a
Protocol: Activity of both protein peaks was assayed using an optimized discontinuous assay format. Reaction mixture was 100 mM Tris (pH 8.0), 100 nM coolEST49,±0.1 mM palmitoyl CoA in a volume of 100 μL. The mixture was allowed to incubate at room temperature for 3 hours. After incubation, 150 μL of developer mixture (0.42 mM DTNB in 100 mM Tris) was added, and the absorbance at 412 nm was measured using a 96-well plate reader, using samples without palmitoyl CoA as blanks.
Activity of S-acyl fatty acid synthase thioesterase-like enzyme short (long) polypeptide from the anion exchange column was assayed and compared to that of the eluate from the Ni-NTA column step. An attempt was also made at inhibiting S-acyl fatty acid synthase thioesterase-like enzyme short (long) polypeptide with either DEPC (7 mM) or AEBSF (1 mM).

[8] = other: Batch 1 from baculovirus

T1 sequence (Q9NV23 whole entry): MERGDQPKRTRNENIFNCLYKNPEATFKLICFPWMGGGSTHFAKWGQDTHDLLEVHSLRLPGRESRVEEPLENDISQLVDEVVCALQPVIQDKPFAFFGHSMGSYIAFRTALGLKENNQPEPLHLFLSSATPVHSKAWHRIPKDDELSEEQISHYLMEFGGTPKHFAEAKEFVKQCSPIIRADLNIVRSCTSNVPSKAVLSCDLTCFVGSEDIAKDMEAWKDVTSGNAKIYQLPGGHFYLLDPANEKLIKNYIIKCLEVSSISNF
T2 sequence (Q9NV23 whole entry): as above

Inactivation of the enzyme [1]: 60%
Compound: O=C(O)c1cc(SSc2ccc([N+](=O)[O-])c(C(=O)O)c2)ccc1[N+](=O)[O-] [DTNB, 5,5′-dithiobis(2-nitrobenzoic acid)]

Km [2]: immeasurable
kcat ([2]; footnote: 1.0 = 23 mOD/min): immeasurable
Compound: CC(=O)SCCNC(=O)CCNC(=O)[C@H](O)C(C)(C)COP(=O)(O)OP(=O)(O)OC[C@H]1O[C@@H](n2cnc3c(N)ncnc32)[C@H](O)[C@@H]1OP(=O)(O)O [Acetyl CoA]

Compound: S-acyl fatty acid synthase thioesterase-like enzyme short (long) polypeptide (Homo sapiens)
Km [3]: 12,400 μM
kcat [3]: 0.115 s⁻¹
Km [4]: 856.1 µM
kcat [4]: 0.0467 s⁻¹
Km [5]: 76.7 µM
kcat [5]: 0.0167 s⁻¹
Km [6, 8]: 5.1 µM
kcat [6, 8]: 0.0167 s⁻¹
Km ([6]; other: Batch 2 from baculovirus): 2.4 µM

Compound: Cl.NCCc1ccc(S(=O)(=O)F)cc1 [AEBSF, 4-(2-Aminoethyl)Benzenesulfonyl Fluoride Hydrochloride]
Inhibition of S-acyl fatty acid synthase thioesterase-like enzyme short (long) polypeptide activity [7]: inhibited

Reference: patent US6593099B2, “Regulation of human S-acyl fatty acid synthase thioesterase-like enzyme” (Bayer Aktiengesellschaft, priority 2000, dated 2003)
